# Test results published in PMC8447599.
# Experiments:
# [1] = molecular target: HoxA without the hydrophobic C-terminal membrane anchor (HoxA∆CTA), Strep-tagged (Alternaria alternata); experiment: SEC
# [2] = molecular target: Apo-PGP (photosensory domain of FphA without chromophore) (A. nidulans); experiment: BLI
# [3] = molecular target: Holo-PGP (chromophore-loaded photosensory domain of FphA) (A. nidulans); experiment: BLI
substance,measurement,setting,value
"HoxA without the hydrophobic C-terminal membrane anchor (HoxA∆CTA), Strep-tagged (domain or fragment)",stoichiometry N,[1],2
same,Kd,[2],0.00113 mM
same,Kd,[3],64.6 mM
